System: Saccharomyces cerevisiae
Test: transcriptional activation domain activity (GFP:mCherry ratio, weighted mean of sorted bins, harmonized to initial dataset scale) (arbitrary fluorescence ratio units); higher = stronger transcriptional activation
Details: beta-estradiol 1 µM; induction time 4 h
In short: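 Each value is an activation activity: the read-weighted mean of bin median fluorescence, averaged across barcodes, then mapped linearly to the initial dataset scale. The tiles, fused to an estradiol-inducible synthetic transcription factor, sat at the yeast URA3 locus in GFP-reporter diploids. Cells spent 4 hours at 30 °C in SC with 1 uM beta-estradiol before sorting into 8 GFP:mCherry bins, and tiles below 50 reads were removed.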

Sequence | transcriptional activation domain activity
MTTNRDKAFFFFFNCERPIFNFFFCPFFLFFYIPFYFPYPYFFSFSYFSFLYL | 78200
MTTWHKVFFFFRNLSFFCLFCLSCFFFLLLFLMKLETTNKVSILYLSLTLILF | 43700
MTVDHDFNSEDILFPIESMSSIQYVENNNPNNINNDVIPYSLDIKNTVLDSAD | 76400
MTVDTLSYTLFPFYSLLSHFLLLLAEIVLCLKYCLLLTLFSILLFLLVFLFLA | 32800
MTVEPSISLLFIDYLLFLIPFLSLFILFSLVLLLSYISPCNFFFFAISSQLPW | 39200
MTVIRFLKMIGPFFFLLLSFLLFPFFFFFIPFKMTLLSFLLLFPLFILHSVHC | 47500
MTVLQYPFRFIVRTHFPLIWAYSSSLGVGYVFLIGSFFLFISLHPLPLFCLLC | 66100
MTVMTLCFFGSSFGPWAGAWFCCLLLLLLLLVIAVSLFLHVCFAWEFWFCLCY | 39500
MTVSLQLYSHTLQLVLCCACAPPLLKFLLFCFFFFFWFFFFFWFCFWFFLLMF | 38000
MTVSWLRRLGTFLFEFFFFFSFFSFFFFLFSFFFFLFFLFSYFPFFSFFSFFS | 21600
MTVTPVNGYGWSRANKIGWTVFYISLWGYSNCSYFFPLPLYFSYVFFFFPFYP | 42200
MTWFGILPPFSWPWIYPRSFGMCGNLSTTLFLHVLIALFFFFCLFFHLCLLWL | 50200
MTWFLSFWLKCGFVLLGLFFDFFLFCNRFLYASISFFFFFHSLSLFWNRNHLF | 79900
MTWFTATLTVLYHLTHPIITIFRWLLLPLTPFYHLFSYIFSTLFLLPSLYIYF | 53100
MTWRGLSLLLSVLLITWCDPAFFPPVYIQFLFIFIFAWLHLIFLFLIQYLGCI | 37900
MTYLPFINFSLDIFVIVIVIVIYFPFFVTNFFNWFFSPFWCYLINYLFNLNLF | 52400
MTYTFDLFSSFLSIVYMPHMATLYFLFFFLLLQCGYFIVLCFFFFHCVLCCFS | 67000
MVAAATARTRRAATVATRRTRPVVMAMAVVVATRNRRATTRAAGIRQAGIRRV | 45900
MVAVVEVWVGEGVGEFWHLVKVWEGFLKLEYPVFFFDVWFFYDPFFCALGFFI | 79300
MVCCAFFVVFFLIEIFIILFLCLPFFSFLFLLWEGRVGGYALWLLSVQVCVRT | 55800
MVCFKRSGLSLVFFFFFFFFFLLLVFFLFFFSLLLPIIISLVVRADLLMVHPH | 31200

Sequence | transcriptional activation domain activity
MVCFQITFLYSAFFPLFSFSFLLNIFPTISIFPHLLQILAAFFVLFYAFFSTM | 55100
MVCRDILHFWWMFISLNANAEDIIISRSSSWLSSPLLVCFLVVCNVVCVYFYI | 72800
MVCTLDHFQFVGLIYFAFFFIVISYFIDSVIFILFFVYFPFFVFLLLFVIAFY | 54800
MVDSRMLGETETGLFLSFIFFRIIFILVLPYLASCSKYVHLLFLYCFLLLRFF | 54600
MVEAQDSSLSSTLFYLSFLDIGATFYTFLLLFFFLEDLEGFLLFIVFWMLLLV | 44100
MVEGCLLHFQFSFPPFFFCFFFGHLGGFVNFCDSLIFKVLRALGLVMNVFTII | 70500
MVEGDEKPARNGGPALQVIVLGSGGGPREDNTTAFLVRSVASGWKRGSVLAVD | 55100
MVFDCEFQHIQFSGSLLCLPLWDFFLRCIVCGHRSIFYIFYIIFVILFLHFLT | 30500
MVFFFFFFFLEGGGLVGWLCSALIFPLSFFLSSKLCLLLPLYYYSNCVFFFLC | 75600
MVFFFFFFHSVEFHFFLWYLSFFRFFFVFLLFPWLDWIGRAGIGLELLLSLFI | 47400
MVFFFFGRRGGCLVGFVVLLSFPLSFFLSFKLCLLLPLYYYSICVFFFSCVFF | 55600
MVFFLYISLLIFFFTATIAALPCMVWWILAVHCWLFIFLDPLAFFYYSFFPFF | 26300
MVFFTSSFLLGFFSFVSFRNHCSFFLMAPFLTGSELFLFFVLLFILFFFFGFG | 48800
MVFFTSSFLLGFFSFVSFRNHCSFFLMAPFLTGSELFLFFVLLFILFFFLALA | 64900
MVFGGIFFQLRGCAVGWSLGYSVSCFFLFFLFVFYAVSFLVWSGCGFLFSFFF | 62700
MVFGHWCVSRLSHNSQILFLLTMLSFPVCENFFGFICNFIILLFARRTLFFVL | 59500
MVFGVFFVYVYLSSWVFVLWFFSLSLSHGLAYLSFFPFSFLSFFPSLSLFPPC | 62900
MVFIIFFAAFYTLFLYHSSLFFTLPFASIFFLLFFVRFIFFISVFLLFFLLGL | 51100
MVFLLIFIVSTLFFCLFLYLLLPSFFYVIFALLAHIFVFSVSLHRQPLLLYLS | 49300
MVFPSKSLFYLVGPCLSFFFVPPTWYDVFHLLFSPMTLDYYPFVLWYSPFLST | 39300

From the supplement of paper PMC12636428
